In patent US8580556B2, “Sulfonylurea-responsive repressor proteins” (E. I. du Pont de Nemours and Company, priority 2008, dated 2013):
Substitutions are numbered along the chain they refer to.

B1: L6-1B03 (protein)
chain: MGSRLDKSKVINSALELLNEVGIEGLTTRKLAQKLGVEQPTLYWHVKNKRALLDALAIEMMDRHATHICPLEGESWQDFLRNNAKSMRCALLSHRDGAKVCLGTRWTEQQYEAAENMLAFLCQQGFSLENALYAVSAVRVFTLGCVLFDQESQVAKEERETPTTASMPPLLRQAWELKDHQGAEPAFLFGLELIICGLEKQLKCESGS
modifications: Sulfonylurea responsive repressor L6-1B03
B2: L6-2C09 (protein)
chain: B1 chain with A65Q, I68Y, N83T, Q110L, A113T, M117Q, V135M, S152L
modifications: Sulfonylurea responsive repressor L6-2C09
B3: L6-2D07 (protein)
chain: B1 chain with A65Q, I68F, N83T, A113T, V135M, L171V
modifications: Sulfonylurea responsive repressor L6-2D07
B4: L6-3H02: SuR polypeptide, SEQ ID NO: 94 (protein)
chain: B1 chain with I68Y, N83T, Q110H, A113S, L171V, D179V
modifications: Sulfonylurea responsive repressor L6-3H02
B5: L6-4D10 (protein)
chain: B1 chain with A65Q, I68Y, Q109K, A113S
modifications: Sulfonylurea responsive repressor L6-4D10
B6: L6-5F05 (protein)
chain: B1 chain with M117Q, S152L
modifications: Sulfonylurea responsive repressor L6-5F05
B7: L6-5G06 (protein)
chain: B1 chain with A65Q, I68Y, A113T, M117Q, S152L, A174G
modifications: Sulfonylurea responsive repressor L6-5G06
B8: L6-5H06 (protein)
chain: B1 chain with A65Q, Q109K, A113T, S152L, L171V
modifications: Sulfonylurea responsive repressor L6-5H06
B9: L6-5H12 (protein)
chain: B1 chain with I68Y, Q109K, A113T, M117Q, V135M, S152L, L171V
modifications: Sulfonylurea responsive repressor L6-5H12
B10: L6-6F07 (protein)
chain: B1 chain with I68L, N83T, A113S, V135M
modifications: Sulfonylurea responsive repressor L6-6F07
B11: L1-25: library L1 reverse repressor hit (SEQ ID NO: 1206-1213) (protein)
chain: MGSRLDKSKVINSALELLNEVGIEGLTTRKLAQKLGVEQPTLYWHVKNKRALLDALAIEMLDRHATHFCPLEGESWQDFLRNTAKSMRCALLSHRDGAKVLLGTATTEKQYETLENLLAFLYQQGFSLENALYAWQAVWRFTLGCVLIDQETQVAKEERETPTTDSMPPLLRQAVELKDHQGAEPAFLFGLELIICGLEKQLKCETGS
modifications: rSuR L1-25
B12: L1-33: library L1 reverse repressor hit (SEQ ID NO: 1206-1213) (protein)
chain: MGSRLDKSKVINSALELLNEVGIEGLTTRKLAQKLGVEQPTLYWHVKNKRALLDALAIEMLDRHATHFCPLEGESWQDFLRNNAKSMRCALLSHRDGAKVQLGTAATEKQYETLENKLAFLCQQGFSLENALYAHSAVTQFTLGCVLRDQEGQVAKEERETPTTDSMPPLLRQARELRDHQGAEPAFLFGLELIICGLEKQLKCESGS
modifications: rSuR L1-33
B13: L1-34: library L1 reverse repressor hit (SEQ ID NO: 1206-1213) (protein)
chain: MGSRLDKSKVINSALELLNEVGIEGLTTRKLAQKLGVEQPTLYWHVKNKRALLDALAIEMADRHNTHFCPLEGESWQDFLRNAARSMRCALLSHRDGAKVYLGTARTEKQYETTENVLAFLCQQGFSLENALYAVRAVPRFTLGCVLLDQERQVAKEERETPTTDSMPPLLRQARELTDHQGAEPAFLFGLELIICGLEKQLKCESGS
modifications: rSuR L1-34

Test system: tetA promoter (PtetA)-lacZ reporter in E. coli KM3
Format: cell-based
Details: not given

Molecule	0.2 ppm 48 hr/Control 84 hr
B1	4.6
B2	2.6
B3	3.4
B4	2.8
B5	3.7
B6	4.1
B7	4.9
B8	2.7
B9	4.2
B10	2.3

Same assay, conditions: M9 assay plates, 0.2 ppm chlorsulfuron as inducer, 48 hr at 30° C., colony color intensity by ImageJ

Molecule	0.2 ppm 48 hr (colony color intensity, induction by chlorsulfuron)
B1	30.0
B3	20.0
B6	22.0

Same assay, conditions: M9 assay plates, no inducer, 84 hr at 30° C., colony color intensity by ImageJ

Molecule	Control 84 hr (colony color intensity, background activity without inducer)
B1	6.6
B2	5.2
B3	5.8
B4	5.6
B5	5.0
B6	5.4
B7	7.0
B8	5.1
B9	5.7
B10	5.1

Same assay, conditions: Table 6, reverse repressor hits; anhydrotetracycline

Molecule	relative β-galactosidase activity, inducer atc
B11	1.22
B12	8.25
B13	3.68

Same assay, conditions: Table 6, reverse repressor hits; chlorimuron, same plate assay format as Table 4

Molecule	relative β-galactosidase activity, inducer Ci
B11	0.11
B12	0.76
B13	0.43

Same assay, conditions: Table 6, reverse repressor hits; chlorsulfuron, same plate assay format as Table 4

Molecule	relative β-galactosidase activity, inducer Cs
B11	0.28
B12	3.74
B13	0.85

Same assay, conditions: Table 6, reverse repressor hits; ethametsulfuron, same plate assay format as Table 4

Molecule	relative β-galactosidase activity, inducer Es
B11	0.13
B12	2.11
B13	1.33

Same assay, conditions: Table 6, reverse repressor hits; metsulfuron, same plate assay format as Table 4

Molecule	relative β-galactosidase activity, inducer Ms
B11	0.32
B12	4.29
B13	1.47

Same assay, conditions: Table 6, reverse repressor hits; nicosulfuron, same plate assay format as Table 4

Molecule	relative β-galactosidase activity, inducer Ns
B11	1.21
B12	5.34
B13	2.91

Same assay, conditions: Table 6, reverse repressor hits; no inducer

Molecule	relative β-galactosidase activity, inducer Blank
B11	1.17
B12	7.59
B13	2.37

Same assay, conditions: Table 6, reverse repressor hits; rimsulfuron, same plate assay format as Table 4

Molecule	relative β-galactosidase activity, inducer Rs
B11	1.08
B12	10.32
B13	2.30

Same assay, conditions: Table 6, reverse repressor hits; sulfometuron, same plate assay format as Table 4

Molecule	relative β-galactosidase activity, inducer Sm
B11	0.63
B12	5.02
B13	2.00

Same assay, conditions: Table 6, reverse repressor hits; thifensulfuron, same plate assay format as Table 4

Molecule	relative β-galactosidase activity, inducer Ts
B11	0.64
B12	5.51
B13	2.97

Same assay, conditions: Table 6, reverse repressor hits; tribenuron, same plate assay format as Table 4

Molecule	relative β-galactosidase activity, inducer Tb
B11	1.72
B12	4.71
B13	2.26
